B1: PR000301 (bispecific antibody, human IgG1, kappa)
chain: EVQLVESGGGLIQPGGSLRLSCAVSGFTVSKNYMSWVRQAPGKGLEWVSVVYSGGSKTYADSVKGRFTISRDNSKNTLYLQMNSLRAEDTAVYYCARAVPHSPSSFDIWGQGTMVTVSSKLEPKSSDKTHTPPPPPRTDIQMTQSPSTLSASVGDRVTVTCRASQSIYIWLAWYQQKPGKAPNLLIYKASSLETGVPSRFSGSGSGTEFTLTISSLQPDDFATYYCQQYYGSSRTFGQGTKVEIKRTVAAPSVFIFPPSDEQLKSGTASVVCLLNNFYPREAKVQWKVDNALQSGNSQESVTEQDSKDSTYSLSSTLTLSKADYEKHKVYACEVTHQGLSSPVTKSFNRGEC
heavy: not shown
B2: PR000943, anti-BCMA HCAb antibody, clone 1005P16A10 (antibody, human IgG1, V domains shown)
VH: EVQLVETGGGLIQPGGSLRLSCAASGFPVSSNYMSWVRQAPGKGLEWVSVIFSGGRTYYADSVKGRFTISRDNSKNTLYLQMNSLRAEDTAVYYCARRNWIDGRDAFDIWGQGTMVTVSS
notes: Heavy-chain-only antibody (HCAb), human IgG1 Fc, no light chain
B3: PR000300 (bispecific antibody, human IgG1, kappa)
light: DIQMTQSPSTLSASVGDRVTVTCRASQSIYIWLAWYQQKPGKAPNLLIYKASSLETGVPSRFSGSGSGTEFTLTISSLQPDDFATYYCQQYYGSSRTFGQGTKVEIKRTVAAPSVFIFPPSDEQLKSGTASVVCLLNNFYPREAKVQWKVDNALQSGNSQESVTEQDSKDSTYSLSSTLTLSKADYEKHKVYACEVTHQGLSSPVTKSFNRGEC
chain: not shown
notes: PR000070 + VH of PR000184
B4: PR000401 (bispecific antibody, human IgG1, kappa, L234A L235A)
light: B3 light
chain: EVQLVESGGGLVQPGGSLRLSCAASGFTFSSYWMSWVRQAPGKGLEWVANIKQEGSEKYYVDSVKGRFTISRDNAKNSLYLQMNSLRAEDTAVYYCARDRAVAGAFDIWGQGTMVTVSSASTKGPSVFPLAPSSKSTSGGTAALGCLVKDYFPEPVTVSWNSGALTSGVHTFPAVLQSSGLYSLSSVVTVPSSSLGTQTYICNVNHKPSNTKVDKKVEPKSCDKTHTCPPCPAPEAAGGPSVFLFPPKPKDTLMISRTPEVTCVVVDVSHEDPEVKFNWYVDGVEVHNAKTKPREEQYNSTYRVVSVLTVLHQDWLNGKEYKCKVSNKALGAPIEKTISKAKGQPREPQVYTLPPSREEMTKNQVSLTCLVKGFYPSDIAVEWESNGQPENNYKTTPPVLDSDGSFFLYSKLTVDKSRWQQGNVFSCSVMHEALHNHYTQKSLSLSPGKLEPKSSDKTHTPPPPPRTEVQLVESGGGLIQPGGSLRLSCAVSGFTVSKNYMSWVRQAPGKGLEWVSVVYSGGSKTYADSVKGRFTISRDNSKNTLYLQMNSLRAEDTAVYYCARAVPHSPSSFDIWGQGTMVTVSS
notes: PD-L1×CTLA4, structure 5
B5: PR000265, anti-PD-L1 91G3H5H3(D54E), hIgG1(N297A) (antibody)
heavy: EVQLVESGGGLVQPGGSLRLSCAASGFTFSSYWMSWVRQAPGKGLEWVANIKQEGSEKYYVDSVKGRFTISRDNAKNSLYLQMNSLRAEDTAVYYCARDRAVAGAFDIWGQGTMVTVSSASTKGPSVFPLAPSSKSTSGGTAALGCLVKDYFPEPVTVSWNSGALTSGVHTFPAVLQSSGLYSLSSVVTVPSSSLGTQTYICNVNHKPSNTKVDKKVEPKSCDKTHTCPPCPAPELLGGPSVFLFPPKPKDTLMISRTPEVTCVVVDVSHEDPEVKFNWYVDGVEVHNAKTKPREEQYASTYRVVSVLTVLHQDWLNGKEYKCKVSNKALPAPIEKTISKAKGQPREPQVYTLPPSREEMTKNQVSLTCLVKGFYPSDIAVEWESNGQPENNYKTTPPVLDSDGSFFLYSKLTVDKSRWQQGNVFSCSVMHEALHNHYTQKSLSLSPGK
light: B3 light
B6: PR001046, anti-BCMA HCAb antibody, clone 1005P63B7 (antibody, human IgG1, V domains shown)
VH: EVQLVETGGGLIQPGGSLRLSCAASGFTVSDNYMTWVRQAPGKGLEWVSVIFSGGNTYYADSVKGRFTISRDNAKNTLYLQMNSLRAEDTALYYCARRNYDDTRGTDVFDIWGQGTMVTVSS
notes: as for B2
B7: PR000274, anti-BCMA monoclonal antibody CA8-J6M0 (antibody, human IgG1, kappa, V domains shown)
VH: QVQLVQSGAEVKKPGSSVKVSCKASGGTFSNYWMHWVRQAPGQGLEWMGATYRGHSDTYYNQKFKGRVTITADKSTSTAYMELSSLRSEDTAVYYCARGAIYDGYDVLDNWGQGTLVTVSS
VL: DIQMTQSPSSLSASVGDRVTITCSASQDISNYLNWYQQKPGKAPKLLIYYTSNLHSGVPSRFSGSGSGTDFTLTISSLQPEDFATYYCQQYRKLPWTFGQGTKLEIKR
notes: Control antibody; also called Positive control 1; CA8-J6M0 hIgG1
B8: PR000184, anti-CTLA4 heavy-chain antibody CL5v3, hIgG1 (antibody, V domains shown)
VH: EVQLVESGGGLIQPGGSLRLSCAVSGFTVSKNYMSWVRQAPGKGLEWVSVVYSGGSKTYADSVKGRFTISRDNSKNTLYLQMNSLRAEDTAVYYCARAVPHSPSSFDIWGQGTMVTVSS
notes: heavy-chain-only antibody (VH-Fc dimer); also called anti-CTLA4 HCAb monoclonal antibody PR000184

What was measured:
[1] = biological target: T1, biotinylated human CTLA4-Fc protein (ACRO Biosystems, #CT4-H82F3) (human, UniProt P16410 36-161, biotinylated); assay: competition ELISA: biotinylated hCTLA4-Fc to coated B7-1-Fc
T1 construct: bought; also called human CTLA4 protein
T1 sequence (P16410 36-161 limits assumed): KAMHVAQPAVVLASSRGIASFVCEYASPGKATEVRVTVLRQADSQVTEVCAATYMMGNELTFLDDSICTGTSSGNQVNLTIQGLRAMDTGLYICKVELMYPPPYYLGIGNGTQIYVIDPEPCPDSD

[2] = biological target: T2, human PD-L1 on cells (CHO-K1/hPDL1; MDA-MB-231) (human, UniProt Q9NZQ7 19-290); assay: competition FACS: biotinylated PD-1 to CHO-K1/hPDL1 cells (Experiment 1)
T2 construct: whole, on cells
T2 sequence (Q9NZQ7 19-290): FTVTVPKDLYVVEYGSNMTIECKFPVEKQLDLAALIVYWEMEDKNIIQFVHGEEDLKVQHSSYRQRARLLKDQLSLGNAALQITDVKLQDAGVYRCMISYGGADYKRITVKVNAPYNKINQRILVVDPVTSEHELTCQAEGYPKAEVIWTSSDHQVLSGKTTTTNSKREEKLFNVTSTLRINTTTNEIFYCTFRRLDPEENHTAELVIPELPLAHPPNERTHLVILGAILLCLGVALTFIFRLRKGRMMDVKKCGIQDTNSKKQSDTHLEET

[3] = biological target: T3, human PD-L1-His protein (ACRO Biosystems, #PD1-H5229) (human, UniProt Q9NZQ7 19-238); assay: ELISA, coated hPD-L1-His
T3 construct: extracellular domain; bought; also called hPDL1-His; human PD-L1 extracellular domain recombinant protein
T3 sequence (Q9NZQ7 19-238): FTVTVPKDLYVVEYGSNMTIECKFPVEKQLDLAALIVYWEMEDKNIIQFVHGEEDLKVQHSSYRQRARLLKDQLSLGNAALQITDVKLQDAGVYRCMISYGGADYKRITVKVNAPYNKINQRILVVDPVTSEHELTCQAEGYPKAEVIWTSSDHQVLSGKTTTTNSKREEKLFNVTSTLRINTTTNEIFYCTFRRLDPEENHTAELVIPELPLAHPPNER

[4] = biological target: T4, human CTLA4-His protein (ACRO Biosystems, #CT4-H5229) (human, UniProt P16410 36-161); assay: ELISA, coated hCTLA4-His
T4 construct: extracellular domain; bought; also called hCTLA4-His; human CTLA4 extracellular domain recombinant protein
T4 sequence (P16410 36-161): as the sequence (P16410 36-161 limits assumed) above

[5] = biological target: T5, human CTLA4 on cells (CHO-K1/hCTLA4; HEK293/hCTLA4; 293F-hCTLA4) (human, UniProt P16410 36-223); assay: competition FACS: biotinylated B7-1-Fc to CHO-K1/hCTLA4 cells (Test 1)
T5 construct: whole, on cells
T5 sequence (P16410 36-223): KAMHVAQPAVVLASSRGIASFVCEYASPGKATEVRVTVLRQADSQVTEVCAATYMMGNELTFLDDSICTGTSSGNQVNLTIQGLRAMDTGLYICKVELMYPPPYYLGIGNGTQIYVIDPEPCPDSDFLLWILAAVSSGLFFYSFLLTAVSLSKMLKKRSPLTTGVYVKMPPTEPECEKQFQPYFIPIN

[6] = biological target: T5, human CTLA4 on cells (CHO-K1/hCTLA4; …); assay: FACS, CHO-K1/hCTLA4 cells (Test 1)
[7] = biological target: T2, human PD-L1 on cells (CHO-K1/hPDL1; …); assay: FACS, CHO-K1/hPDL1 cells (Experiment 1)
[8] = biological target: T5, human CTLA4 on cells (CHO-K1/hCTLA4; …); assay: cell-based or functional assay
human BCMA [9] = biological target: T6, human BCMA (human, UniProt Q02223 1-184); assay: flow cytometry, HEK293T/hBCMA cells
T6 construct: whole, on cells; the cell line is named under assay; also called TNFRSF17; CD269
T6 sequence (looked up): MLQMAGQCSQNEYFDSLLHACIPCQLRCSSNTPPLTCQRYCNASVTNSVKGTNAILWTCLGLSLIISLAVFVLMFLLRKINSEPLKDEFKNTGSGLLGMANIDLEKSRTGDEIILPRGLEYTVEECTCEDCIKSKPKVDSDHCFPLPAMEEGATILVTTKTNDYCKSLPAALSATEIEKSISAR

human BCMA [10] = biological target: T6, human BCMA; assay: cell-based or functional assay
human BCMA [11] = biological target: T6, human BCMA; assay: flow cytometry, NCI-H929 cells
[12] = biological target: T7, biotinylated human BCMA-Fc, Avitag recombinant protein (ACRO Biosystems, #BC7-H82F0) (human, UniProt Q02223 1-54, biotinylated); assay: BLI (Octet Red96e), biotinylated BCMA-Fc on SA sensor, antibody in solution, 1:1 global fit
T7 construct: extracellular domain; Bought protein; also called human BCMA protein; recombinant human BCMA-ECD-Fc; not shown: Fc of the bought fusion protein; Avitag
T7 sequence (looked up): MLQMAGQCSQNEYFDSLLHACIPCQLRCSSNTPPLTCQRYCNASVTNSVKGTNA

cynomolgus monkey BCMA = biological target: T8, cynomolgus monkey BCMA (cynomolgus monkey); assay: flow cytometry, HEK293T/cyno BCMA cells
T8 construct: whole, on cells; also called cyno BCMA; HEK293T/cyno BCMA cells

[13] = biological target: T5, human CTLA4 on cells (CHO-K1/hCTLA4; …); assay: FACS, HEK293/hCTLA4 cells
[14] = biological target: T2, human PD-L1 on cells (CHO-K1/hPDL1; …); assay: FACS, MDA-MB-231 cells
[15] = biological target: T5, human CTLA4 on cells (CHO-K1/hCTLA4; …); assay: competition FACS: biotinylated B7-1-Fc to CHO-K1/hCTLA4 cells (Test 2)
[16] = biological target: T5, human CTLA4 on cells (CHO-K1/hCTLA4; …); assay: FACS, CHO-K1/hCTLA4 cells (Test 2)

Binder	IC50 [1] [pM]	Maximum inhibition rate (%) [1] [%]	EC50 [4] [pM]	Maximum OD450 [4] [OD450]	IC50 [5] [pM]	Maximum inhibition rate (%) [5] [%]	EC50 [6] [pM]	Maximum MFI [6] [MFI]	ADCC killing of 293F-hCTLA4 cells, EC50 [8] [pM]	ADCC killing of 293F-hCTLA4 cells, Maximum killing rate (%) [8] [%]	EC50 (human BCMA [9]) [pM]	Maximum MFI (human BCMA [9])	EC50 (nM), target cell killing mediated by antibody internalization (HEK293T/hBCMA cells, a-hFc-MMAF) (human BCMA [10]) [nM]	Maximum killing rate (%), target cell killing mediated by antibody internalization (HEK293T/hBCMA cells, a-hFc-MMAF) (human BCMA [10]) [%]	EC50 (human BCMA [11]) [pM]	Maximum MFI (human BCMA [11])	EC50 (cynomolgus monkey BCMA) [pM]	Maximum MFI (cynomolgus monkey BCMA)	other results
B1	2510	98.3	350	2.92	3210	99.9	1940	2360	31	36.6	–	–	–	–	–	–	–	–	IC50 [2]: 882 pM; Maximum inhibition rate (%) [2]: 96.2%; EC50 [3]: 131 pM; Maximum OD450 [3]: 3.53 OD450; EC50 [7]: 918 pM; Maximum MFI [7]: 16600 MFI
B2	–	–	–	–	–	–	–	–	–	–	154	70000	0.492	78.7	4800	166000	329	64000	Kd [12]: 162 pM; koff [12]: 1.93e-05 s⁻¹; kon [12]: 119000 M⁻¹ s⁻¹
B3	2090	98.2	567	2.95	6420	101	2910	2620	8	23.8	–	–	–	–	–	–	–	–	IC50 [2]: 677 pM; Maximum inhibition rate (%) [2]: 96.6%; EC50 [3]: 108 pM; Maximum OD450 [3]: 3.52 OD450; EC50 [7]: 884 pM; Maximum MFI [7]: 21000 MFI
B4	–	–	–	–	–	–	–	–	–	–	–	–	–	–	–	–	–	–	EC50 [13]: 5170 pM; Maximum MFI [13]: 1910 MFI; EC50 [14]: 288 pM; Maximum MFI [14]: 994 MFI
B5	–	–	–	–	–	–	–	–	–	–	–	–	–	–	–	–	–	–	EC50 [14]: 163 pM; Maximum MFI [14]: 958 MFI
B6	–	–	–	–	–	–	–	–	–	–	213	63400	0.571	71.2	1540	133000	564	67700	Kd [12]: 25.3 pM; koff [12]: 1.07e-05 s⁻¹; kon [12]: 423000 M⁻¹ s⁻¹
B7	–	–	–	–	–	–	–	–	–	–	4080	86500	2.18	77.2	10800	125000	4560	116000	–
B8	2670	97.2	599	3.01	4130	99.7	1690	1670	15	30.2	–	–	–	–	–	–	–	–	EC50 [13]: 1150 pM; Maximum MFI [13]: 2260 MFI; IC50 [15]: 3010 pM; Maximum inhibition rate (%) [15]: 100%; EC50 [16]: 4640 pM; Maximum MFI [16]: 722 MFI
